Experimental data as given in paper PMC10917064.
Values belong to the substance of their own block, whether it stands above or below them.

Columns and labels:
[1] = target: mUb-K240 VASP (VASP^CCC-SSA K240C crosslinked by bismaleimidoethane to ubiquitin^(1-74, G75C)) (UniProt P0CG48); test: mass photometry; 15 nM VASP, room temperature, Refeyn One; margin of error of each mass about 20-25%
[2] = target: mUb-K286 VASP (VASP^CCC-SSA K286C crosslinked by bismaleimidoethane to ubiquitin^(1-74, G75C)) (UniProt P0CG48); test: as above
[3] = target: mmUb-K240/K286 VASP (VASP^CCC-SSA K240C, K286C crosslinked by bismaleimidoethane to two ubiquitin^(1-74, G75C)) (UniProt P0CG48); test: as above
[4] = target: chicken skeletal muscle actin (filaments, 10% Alexa Fluor 488 labeled) (chicken) (UniProt P68139); test: single-molecule TIRF microscopy (dwell time); 1 nM TAMRA–VASP at the trailing barbed end of two-filament bundles; 1.5 µM actin (10% Alexa Fluor 488 labeled), 673 nM fascin, TIRF buffer, room temperature; 0.5 s/frame; one-phase decay fit of 1−cumulative frequency
[5] = target: unmodified VASP (TAMRA–VASP; cysteine-light VASP^CCC-SSA with an N-terminal GGG motif) (human); test: mass photometry; 15 nM VASP, room temperature, Refeyn One; margin of error of each mass about 20-25%

stoichiometry N [1]: 4
Substance: mUb-K240 VASP (VASP^CCC-SSA K240C crosslinked by bismaleimidoethane to ubiquitin^(1-74, G75C)) (from UniProt P0CG48 1-75) (complex)

stoichiometry N [2]: 4
Substance: mUb-K286 VASP (VASP^CCC-SSA K286C crosslinked by bismaleimidoethane to ubiquitin^(1-74, G75C)) (from UniProt P0CG48 1-75) (complex)

stoichiometry N [3]: 4
lifetime τ1 at the barbed end [4]: 1.14 s
Substance: mmUb-K240/K286 VASP (VASP^CCC-SSA K240C, K286C crosslinked by bismaleimidoethane to two ubiquitin^(1-74, G75C)) (from UniProt P0CG48 1-75) (complex)

stoichiometry N [5]: 4
lifetime τ1 at the barbed end [4]: 1.17 s
Substance: unmodified VASP (TAMRA–VASP; cysteine-light VASP^CCC-SSA with an N-terminal GGG motif) (natural protein)
